The record followed here is patent publication US20210163598A1 (BEIJING PROTEOME RESEARCH CENTER, published 2021).

Experiment [1] concerns the target BTN3A2 overexpressed on BT474 cells (BT474-BTN3A2) (Homo sapiens (Human), UniProt P78410 30-334). In words: flow cytometric adhesion assay, murine LSECtin-Fc detected with anti-IgG. An excerpt: (§1) 3. Each cell in the step 2 was obtained by digestion and collection, and then was adhered to human LSECtin protein (R&D, 2947-CL) and mouse LSECtin-Fc protein, respectively, and the human LSECtin adhesion rate was detected by mouse anti-human LSECtin antibody CCB059. […] mouse LSECtin adhesion rate was detected by anti-IgG (Biolegend, 405307), and the adhesion ratio was detected by flow cytometry. Details of adhesion assay have been published in the method of “Tang L, Yang J, Tang X, et al. The DC-SIGN family member LSECtin is a novel ligand of CD44 on activated T cells[J], European journal of immunology. 2010, 40(4): 1185-1191”.

The target in experiment [2] is T1, BTN3A1 overexpressed on BT474 cells (BT474-BTN3A1) (UniProt O00481 30-513, limits assumed).
T1 construct: whole, on cells; Expressed from pIRES2-EGFP-BTN3A1 in BT474 cells
T1 sequence (O00481 30-513 limits assumed): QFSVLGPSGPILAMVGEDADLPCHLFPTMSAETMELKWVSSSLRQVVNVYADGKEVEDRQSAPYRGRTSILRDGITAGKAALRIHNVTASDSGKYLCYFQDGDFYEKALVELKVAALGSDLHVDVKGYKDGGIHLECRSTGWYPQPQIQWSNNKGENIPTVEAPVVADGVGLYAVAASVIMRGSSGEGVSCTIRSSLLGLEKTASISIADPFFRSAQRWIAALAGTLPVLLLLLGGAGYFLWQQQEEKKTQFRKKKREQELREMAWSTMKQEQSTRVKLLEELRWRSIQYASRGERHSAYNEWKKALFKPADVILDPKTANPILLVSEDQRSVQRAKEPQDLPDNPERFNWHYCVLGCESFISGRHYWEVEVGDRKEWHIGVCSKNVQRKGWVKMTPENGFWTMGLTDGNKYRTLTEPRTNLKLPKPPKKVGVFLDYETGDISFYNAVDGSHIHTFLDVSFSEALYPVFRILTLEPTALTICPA
The experiment is described as above.
Source text: as §1

The target of experiment [3] is T1, BTN3A1 overexpressed on BT474 cells …. In words: flow cytometric adhesion assay, human LSECtin detected with antibody CCB059.
Source text: as §1

Sequence of BTN3A2 overexpressed on BT474 cells (BT474-BTN3A2) (P78410 30-334 limits assumed): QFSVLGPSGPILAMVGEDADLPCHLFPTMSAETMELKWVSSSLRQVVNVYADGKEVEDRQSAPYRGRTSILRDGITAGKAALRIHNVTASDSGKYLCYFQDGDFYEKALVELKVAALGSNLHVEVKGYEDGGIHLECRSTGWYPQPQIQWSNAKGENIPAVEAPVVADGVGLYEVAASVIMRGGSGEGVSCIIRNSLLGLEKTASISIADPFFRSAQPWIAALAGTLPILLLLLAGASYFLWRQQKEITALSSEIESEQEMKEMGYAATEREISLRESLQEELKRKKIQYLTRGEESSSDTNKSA

B1: mouse LSECtin-Fc protein (Fc fusion, UniProt Q8BNX1 52-294, looked up)
chain: LLSSASSKLRVLLSHQDLLRTNASEQKMTLSSLKDDIGACRNCCSVTKAQLQTTLAEFKDIQAKLMEQESILKELQERVTQDLAKASRDRENIRSELFQALEAVKRQNSSCEQCPPSWLPFQGSCYYFSETQATWDTAQSYCGGQGAHLVIVRGLNEQGFLSQHTRGRGYWLGLRAVRHLNKIQGYRWVDGASLNFSHWNSGEPNDSRGHEDCIMMLHSGLWNDAPCTNERDGWICEKRSSCY
notes: also called murine LSECtin-Fc; murine LSECtin; not shown: Fc part
On to B1, for which the binding result in experiment [1] and in experiment [2] was “no binding” in each case.

B2: human LSECtin protein (R&D, 2947-CL) (ligand)
chain: SKASTERAALLDGHDLLRTNASKQTAALGALKEEVGDCHSCCSGTQAQLQTTRAELGEAQAKLMEQESALRELRERVTQGLAEAGRGREDVRTELFRALEAVRLQNNSCEPCPTSWLSFEGSCYFFSVPKTTWAAAQDHCADASAHLVIVGGLDEQGFLTRNTRGRGYWLGLRAVRHLGKVQGYQWVDGVSLSFSHWNQGEPNDAWGRENCVMMLHTGLWNDAPCDSEKDGWICEKRHNC
notes: Bought recombinant protein (R&D 2947-CL); also called human recombinant protein LSECtin; Liver Sinusoidal Endothelial Cells lectin
As to B2, the binding result in experiment [3] is reported as “no binding”.
